Experimental data as given in patent US5436138A, “Method for protein N-myristoylation” (Washington University, priority 1993, dated 1995).
Residue numbers refer to the chain shown, from its start. Where a SMILES comes first, the peptide text is derived from it.

Assays:
[1] = biological target: T1, E. coli-derived S. cerevisiae NMT (Total E. coli NMT) (Saccharomyces cerevisiae, UniProt P14743, S2A); experiment: coupled in vitro assay for NMT activity, Total E. coli NMT; type: biochemical; conditions: 15 μM myristate; for Vmax, Total E. coli NMT: peptide substrate, percentage of Vmax with GNAAAARR and myristoyl-CoA; for Km: peptide substrate varied
T1 construct: intact 53 kDa (codon 2 Ser to Ala from cloning) plus 45 kDa truncated form
T1 sequence (P14743 1-455 S2A): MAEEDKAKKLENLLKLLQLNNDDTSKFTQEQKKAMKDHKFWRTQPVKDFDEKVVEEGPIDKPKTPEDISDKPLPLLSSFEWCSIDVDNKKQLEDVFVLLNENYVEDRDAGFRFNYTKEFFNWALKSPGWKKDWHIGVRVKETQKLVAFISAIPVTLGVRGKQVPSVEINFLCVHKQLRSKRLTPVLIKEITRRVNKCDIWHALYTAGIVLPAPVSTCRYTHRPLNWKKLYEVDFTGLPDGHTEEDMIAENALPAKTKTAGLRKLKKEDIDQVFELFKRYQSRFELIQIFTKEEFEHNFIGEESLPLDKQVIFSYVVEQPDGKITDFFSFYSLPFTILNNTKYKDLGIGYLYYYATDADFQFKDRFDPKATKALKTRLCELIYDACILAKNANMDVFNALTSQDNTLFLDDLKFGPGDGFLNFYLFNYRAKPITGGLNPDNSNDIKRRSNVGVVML
Protocol: (§1) In vitro assay system for NMT activity. To assess the peptide and acyl-CoA substrate specificities of E. coli-derived S. cerevisiae NMT, crude lysates or partially purified enzyme preparations were added to a coupled in vitro assay system [Towler and Glaser, Proc. Natl. Acad. Sci. USA 83, 2812-2816 (1986)]. The first step of this assay involves enzymatic conversion of radiolabeled fatty acids to their CoA thioesters by Pseudomonas acyl-CoA ligase. This ligase is largely nonspecific for fatty acid substrates [Shimizu et al., Anal. Biochem. 107, 193-198 (1980)]. Octapeptide substrates and NMT were then added to produce acylpeptides. Acylpeptides were purified from the reaction mixture by trichloroacetic acid/methanol precipitation and C18 reverse phase HPLC using a linear gradient of acetonitrile in water [Towler and Glaser, Proc. Natl. Acad. Sci. USA 83, 2812-2816 (1986)].
(§2) The peptide Km and Vmax values shown in the above Table I are averages obtained from 4- or 5-point Lineweaver-Burke plots. These plots were produced using data generated in at least three independent in vitro NMT assays. Varying concentrations of peptides were assayed with 15 μM myristate to determine peptide Km and Vmax values. […] Yeast NMT was from a 570 fold purified preparation [Towler et al., Proc. Natl. Acad. Sci. USA 84, 2708-2712 (1987)]. Synthetic peptide substrates are represented by their conventional one letter amino acid code. […] ND=not determined.

[2] = biological target: T2, 45 kDa E. coli NMT (NMT missing the NH2-terminal 39 residues) (Saccharomyces cerevisiae, UniProt P14743); experiment: coupled in vitro assay for NMT activity, 45 kDa E. coli NMT; type: biochemical, S. cerevisiae; conditions: for Km: peptide substrate varied; for Vmax, 45 kDa E. coli NMT: percentage of Vmax with GNAAAARR and myristoyl-CoA
T2 construct: S2A lies in the removed part
T2 sequence (P14743 40-455): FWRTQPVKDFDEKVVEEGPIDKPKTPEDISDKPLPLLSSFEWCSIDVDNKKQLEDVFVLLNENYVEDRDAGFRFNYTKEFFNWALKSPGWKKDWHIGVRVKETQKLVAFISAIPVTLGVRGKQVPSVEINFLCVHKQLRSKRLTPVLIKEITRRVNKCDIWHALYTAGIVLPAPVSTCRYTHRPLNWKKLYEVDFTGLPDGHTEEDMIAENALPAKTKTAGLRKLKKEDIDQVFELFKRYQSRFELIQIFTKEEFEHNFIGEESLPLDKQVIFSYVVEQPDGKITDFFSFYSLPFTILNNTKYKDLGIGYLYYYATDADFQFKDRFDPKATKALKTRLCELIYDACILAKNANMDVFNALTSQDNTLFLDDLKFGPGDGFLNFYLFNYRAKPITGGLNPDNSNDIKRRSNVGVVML
Protocol: as §1
To obtain a homogenous preparation of the enzyme, E. coli-produced NMT was further purified by Mono S fast protein liquid chromatography (FPLC).
as §2

[3] = biological target: T3, Yeast NMT (partially purified from S. cerevisiae) (Saccharomyces cerevisiae, UniProt P14743); experiment: coupled in vitro assay for NMT activity, Yeast NMT; type: biochemical; conditions: for Vmax, Yeast NMT: percentage of Vmax with GNAAAARR and myristoyl-CoA; for Km: peptide substrate varied, 570 fold purified preparation
T3 sequence (P14743 1-455): T1 sequence (P14743 1-455 S2A) with A2S
Protocol: as §1, §2

[4] = biological target: T4, yeast NMT coexpressed with murine PK-A C-subunit in E. coli strain JM101 (Saccharomyces cerevisiae, UniProt P14743, S2A); experiment: [3H]Fatty acid labeling of PK-A C-subunit produced in E. coli coexpressing yeast NMT1; type: cell-based, S. cerevisiae; conditions: for incorporation of [3H]fatty acid into the C-subunit of PK-A: E. coli JM101 with NMT1 and wild type Cα plasmids after induction, SDS-PAGE and fluorography
T4 construct: metabolic labeling in cells
Protocol: [^3 H]Fatty acid labeling of PK-A C-subunit produced in E. coli. Four ml cultures of the double transformants were shaken at 37° C. to an OD600 of 0.5 in LB broth+100 μg/ml ampicillin and 100 μg/ml kanamycin sulfate. Isopropyl-β-D-thiogalactopyranoside (IPTG) was then added to a final concentration of 1 mM to induce NMT production (see Results, below). When the cultures reached OD600 =1.0 (approximately 40 min later), nalidixic acid was added to a final concentration of 50 μg/ml to induce C-subunit production (see Results, below). [^3 H]Myristate (New England Nuclear; 39.3 Ci/mmol, 113 μCi added per ml of culture), [^3 H]palmitate (New England Nuclear; 30 Ci/mmol, 143 μCi/ml), or [^3 H]10-(propoxy)decanoate [Heuckeroth and Gordon, Proc. Natl. Acad. Sci. USA 86, 5262-5266 (1989)] (31.7 Ci/mmol, 800 μCi/ml) was added simultaneously with the nalidixic acid. Cultures were shaken for an additional 20 min at 37° C. and the cells were harvested by centrifugation. Lysates were prepared by boiling E. coli contained in the pellet for 10 min in 40 μL of a solution of 125 mM Tris, pH 8.0, 4% SDS, 20% glycerol, 10% β-mercaptoethanol, and 0.2M dithiothreitol. Cell debris was removed by centrifugation and 15 μl aliquots of the supernatant were subjected to SDS-PAGE [Laemmli, Nature 227, 680-685 (1970)] and subsequent fluorography using EN^3 HANCE (New England Nuclear) autoradiography enhancer. For Western blot analyses, 50 μg of reduced and denatured lysate proteins, prepared from unlabeled E. coli producing Gly^2 -C-subunit or Ala^2 -C-subunit, were separated by SDS-PAGE, electroblotted onto nitrocellulose [Burnette, Anal. Biochem. 112, 195-230 (1981)], and the filters probed with polyclonal, monospecific rabbit antisera raised against purified mouse C-subunit. Antigen-antibody complexes were visualized with ^125 I-protein A [Burnette, supra.].

[5] = peptide substrate, 15 μM myristate
[6] = fatty acyl-CoA substrate, 60 μM GNAAAARR

Compound	Vmax, Total E. coli NMT [1]	Vmax, 45 kDa E. coli NMT [2, 5]	Vmax, Yeast NMT [3, 5]	Km [1]	further results
C[C@H](NC(=O)[C@H](C)NC(=O)[C@H](C)NC(=O)[C@H](CC(N)=O)NC(=O)CN)C(=O)N[C@@H](C)C(=O)N[C@@H](CCCNC(=N)N)C(=O)N[C@@H](CCCNC(=N)N)C(N)=O (H-GNAAAARR-NH2)	100%	100%	100%		Km ([2]; 15 μM myristate): 62.5 µM
C[C@H](NC(=O)[C@H](C)NC(=O)[C@H](CC(N)=O)NC(=O)CN)C(=O)N[C@@H](CO)C(=O)N[C@@H](C)C(=O)N[C@@H](CCCNC(=N)N)C(=O)N[C@@H](CCCNC(=N)N)C(N)=O (H-GNAASARR-NH2)	3.6%	4.9%	3%		reduction in apparent Km ([2]; relative to GNAAAARR-NH2, Mono S purified 45 kDa NMT): 100 fold
CCCOCCCCCCCCCC(=O)SCCNC(=O)CCNC(=O)[C@H](O)C(C)(C)COP(=O)(O)OP(=O)(O)OC[C@H]1O[C@@H](n2cnc3c(N)ncnc32)[C@H](O)[C@@H]1OP(=O)(O)O [11-oxamyristoyl-CoA]					Vmax, 45 kDa E. coli NMT [2, 6]: 450%; Vmax, Yeast NMT [3, 6]: 270%
CCCCCCCCCCCCCC(=O)SCCNC(=O)CCNC(=O)[C@H](O)C(C)(C)COP(=O)(O)OP(=O)(O)OC[C@H]1O[C@@H](n2cnc3c(N)ncnc32)[C@H](O)[C@@H]1OP(=O)(O)O [Myristoyl-CoA]					Vmax, 45 kDa E. coli NMT [2, 6]: 100%; Vmax, Yeast NMT [3, 6]: 100%
CCCCCCCCCCCCCCCC(=O)SCCNC(=O)CCNC(=O)[C@H](O)C(C)(C)COP(=O)(O)OP(=O)(O)OC[C@H]1O[C@@H](n2cnc3c(N)ncnc32)[C@H](O)[C@@H]1OP(=O)(O)O [Palmitoyl-CoA]					Vmax, 45 kDa E. coli NMT [2, 6]: 22.4%; Vmax, Yeast NMT [3, 6]: 21%
CCCOCCCCCCCCCC(=O)O [[^3 H]10-(propoxy)decanoic acid, 10-(propoxy)decanoic acid]					incorporation of [3H]fatty acid into the C-subunit of PK-A [4]: effective alternative substrate for NMT that could be incorporated into the C-subunit of PK-A; incorporation of [3H]fatty acid into the C-subunit of PK-A ([4]; listed as [^3 H]11-oxamyristate): could also be labeled in a Gly^2 dependent manner
CCCCCCCCCCCCCC(=O)O [[^3 H]Myristic acid, Myristic acid]					Pronase E digestion product of the labeled C-subunit ([4]; C18 reverse-phase HPLC): co-migrated with the chemically synthesized [^3 H]myristoylglycine standard; incorporation of [3H]fatty acid into the C-subunit of PK-A [4]: efficiently linked to the Gly^1 residue of the C-subunit; incorporation of [3H]fatty acid into the C-subunit of PK-A ([4]; listed as [^3 H]myristic acid): a 40 kDa protein was metabolically labeled; overall efficiency of NMT-catalyzed linkage of the myristoyl moiety to the C-subunit ([4]; in E. coli, estimated from Western blot, incorporated label and specific activity): ~100%
ANAAAARR	Not a substrate	Not a substrate	Not a substrate		
ASSKSKPK [synthetic octapeptide, one letter amino acid code]	Not a substrate	Not a substrate	Not a substrate		
GDAAAARR [synthetic octapeptide substrate, one letter amino acid code]	4.2%	< 2%	< 2%	645 µM	
GNAADARR [synthetic octapeptide substrate, one letter amino acid code]	4.9%	< 2%	< 2%	503 µM	
GPAAAARR [synthetic octapeptide substrate, one letter amino acid code]	21.6%	< 2%	< 2%	7100 µM	
GSAAAARR [synthetic octapeptide substrate, one letter amino acid code]	27.6%		50%	697 µM	Km ([3]; 15 μM myristate): 1700 µM
GSAASARR [synthetic octapeptide substrate, one letter amino acid code]	29%		34%	2.1 µM	Km ([3]; 15 μM myristate): 3 µM
GSSKSKPK [synthetic octapeptide substrate, one letter amino acid code]	33%	52%	43%	48.5 µM	Km ([2]; 15 μM myristate): 66 µM; Km ([3]; 15 μM myristate): 40 µM
GYAAAARR [synthetic octapeptide, one letter amino acid code]	< 2%	< 2%	Not a substrate		
MGNAAAARR	Not a substrate	Not a substrate	Not a substrate		
